B1: P9F1 (scFv format) (scFv, part only; not given: linker, domain order, tags, V domains shown, not shown: another chain or arm of the molecule; small tags and cut ends)
VH: EVQLLESGGGLVQPGGSLRLSCAASGFIFSSFAMSWVRQAPGKGLEWVSDISGSGASTYYADSVKGRFTISRDNSKNTLYLQMNSLRAEDTAVYYCASASGGSGSYWPYMDPWGQGTLVTVSS
VL: QSVLTQPPSASGTPGQRVTISCSGSGSNIGSNYVYWYQQLPGTAPKLLIYRNNQRPSGVPDRFSGSKSGTSASLAISGLRSEDEADYYCAAWDGSLSRPVFGTGTKLTVL
B2: P4H11 (scFv format) (scFv, part only; not given: linker, domain order, tags, V domains shown, not shown: another chain or arm of the molecule; small tags and cut ends)
VH: EVQLLESGGGLVQPGGSLRLSCAASGFTFSSYAMNWVRQAPGKGLEWVSSISGGGRSTYYADSVKGRFTISRDNSKNTLYLQMNSLRAEDTAVYYCARDLSPSDVGWGYGFDIWGQGTLVTVSS
VL: EIVLTQSPGTLSLSPGERATLSCRASQSVSNTYLAWYQQKPGQAPRLLIYDTSSRATGIPDRFSGSGSGTDFTLTISRLEPEDFAVYYCQQYGSSLTFGQGTKVEIK
B3: P4C7 (scFv format) (scFv, part only; not given: linker, domain order, tags, V domains shown, not shown: another chain or arm of the molecule; small tags and cut ends)
VH: QVQLVQSGAEVKKPGSSVKVSCKASGGTFSSYTISWVRQAPGQGLEWMGGIIPAFGIANYAQKFQGRVTITADKSTSTAYMELSSLRSEDTAVYYCAKGGSYSLDYFDIWGQGTLVTVSS
VL: EIVLTQSPGTLSLSPGERATLSCRASQYVSASLLAWYQQKPGQAPRLLIYGASTRATGIPDRFSGSGSGTDFTLTISRLEPEDFAVYYCQQYARSSTFGQGTKVEIK
B4: P7H3 (scFv format) (scFv, part only; not given: linker, domain order, tags, V domains shown, not shown: another chain or arm of the molecule; small tags and cut ends)
VH: EVQLLESGGGLVQPGGSLRLSCAASGFTFSSYAMHWVRQAPGKGLEWVSAISGSGGSTYYADSVKGRFTISRDNSKNTLYLQMNSLRAEDTAVYYCARGTRWWWGDAFDHWGQGTLVTVSS
VL: QSVLTQPPSVSVAPGKTARITCGGNNIGSKSVHWYQQKPGQAPVLVIYYDSDRPSGIPERFSGSNSGNTATLTISRVEAGDEADYYCQVWDSSTAWVFGGGTKLTVL
B5: P5A3 (scFv format) (scFv, part only; not given: linker, domain order, tags, V domains shown, not shown: another chain or arm of the molecule; small tags and cut ends)
VH: QVQLVQSGAEVKKPGSSVKVSCKASGGTFSSYYIGWVRQAPGQGLEWMGGIIPWFGTANYAQKFQGRVTITADKSTNTAYMELSSLRSEDTAVYYCAADHHDSPSGYTSGGFDVWGQGTLVTVSS
VL: QSALTQPASVSGSPGQSITISCTGTSSDVGGYNYVSWYQQHPGKAPKLMIYEVSKRPSGVPDRFSGSKSGNTASLTVSGLQAEDEADYYCSSYAGSNTVVFGGGTKLTVL
B6: P1B4 (scFv format) (scFv, part only; not given: linker, domain order, tags, V domains shown, not shown: another chain or arm of the molecule; small tags and cut ends)
VH: QVQLVQSGAEVKKPGSSVKVSCKASGGVFSRYALSWVRQAPGQGLEWMGGIIPMLGFANYAQKFQGRVTITADESTSTAYMELSSLRSEDTAVYYCATLDFGALDYWGQGTLVTVSS
VL: EIVLTQSPGTLSLSPGERATLSCRASQSVPNEQLAWYQQKPGQAPRLLIYDASSRATGIPDRFSGSGSGTDFTLTISRLEPEDFAVYYCQQYGSPPLTFGQGTKVEIK
B7: P1A5 (scFv format) (scFv, part only; not given: linker, domain order, tags, V domains shown, not shown: another chain or arm of the molecule; small tags and cut ends)
VH: QVQLVQSGAEVKKPGSSVKVSCKASGGVFSRYALSWVRQAPGQGLEWMGGIIPMLGFANYAQKFQGRVTITADESTSTAYMELSSLRSEDTAVYYCATLDFGALDYWGQGTLVTVSS
VL: EIVLTQSPGTLSLSPGERATLSCRASQAVDSSDLAWYQQKPGQAPRLLIYDAYTRPSGIPDRFSGSGSGTDFTLTISRLEPEDFAVYYCQQYGSSPLTFGGGTKLEIK
B8: P3E10 (scFv format) (scFv, part only; not given: linker, domain order, tags, V domains shown, not shown: another chain or arm of the molecule; small tags and cut ends)
VH: QVQLVQSGAEVKKPGSSVKVSCKASGGTFSSYAIQWVRQAPGQGLEWMGGIVGSWGLANYAQKFQGRVTITTDKSTSTAYMELSSLRSEDTAVYYCATSAFGELASWGQGTLVTVSS
VL: EIVLTQSPGTLSLSPGERATLSCRASQSVPSSQLAWYQQKPGQAPRLLIYDASSRATGIPDRFSGSGSGTDFTLTISRLEPEDFAVYYCQQYGSSPLTFGQGTKVEIK
B9: P5F7 (scFv format) (scFv, from a related filing, part only)
scFv: EVQLLESGGGLVQPGGSLRLSCAASGFTFSSYAMNWVRQAPGKGLEWVSSISGGGRSTYYADSVKGRFTISRDNSKNTLYLQMNSLRAEDTAVYYCARDLSPSDVGWGYGFDIWGQGTLVTVSSGGGGSGGGGSGGGGSEIVLTQSPATLSLSPGERATLSCRASQSVSSNLAWYQQKPGQAPRLLIYDTFTRATGIPARFSGSGSGTDFTLTISRLEPEDFAVYYCQQYGSSPPTFGQGTRLEIK

What follows are binders tested against human FLT3 (hFLT3) (human) (UniProt P36888) (assay: SPR, Table 6, scFv format; set-up and antigen species not described).
Sequence of human FLT3 (hFLT3) (human) (P36888 27-543 limits assumed): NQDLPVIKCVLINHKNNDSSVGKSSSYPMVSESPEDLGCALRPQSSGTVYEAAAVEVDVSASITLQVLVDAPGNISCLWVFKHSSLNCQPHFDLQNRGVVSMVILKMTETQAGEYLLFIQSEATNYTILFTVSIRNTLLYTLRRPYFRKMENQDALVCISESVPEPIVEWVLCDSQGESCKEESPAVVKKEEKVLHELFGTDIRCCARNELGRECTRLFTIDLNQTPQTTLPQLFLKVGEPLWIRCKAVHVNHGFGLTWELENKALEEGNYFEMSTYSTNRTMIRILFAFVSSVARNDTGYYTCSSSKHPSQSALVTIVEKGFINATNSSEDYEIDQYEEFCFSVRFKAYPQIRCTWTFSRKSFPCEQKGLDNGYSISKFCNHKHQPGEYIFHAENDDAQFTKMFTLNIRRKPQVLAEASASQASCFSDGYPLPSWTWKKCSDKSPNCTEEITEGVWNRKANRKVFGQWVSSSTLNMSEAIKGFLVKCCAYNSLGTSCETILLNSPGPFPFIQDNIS
B1 showed a Kd of 126 nM, a koff of 0.0286 s⁻¹ and a kon of 226000 M⁻¹ s⁻¹. The t1/2 was 0.4 min.
For B2, the Kd was 58.3 nM, the koff was 0.00933 s⁻¹ and the kon was 160000 M⁻¹ s⁻¹. For the same binder, the t1/2 was 1 min.
B3 was tested, and the Kd was 13.6 nM, the koff was 0.00164 s⁻¹ and the kon was 121000 M⁻¹ s⁻¹. The t1/2 was 7 min.
With B4 the Kd was 9.1 nM, the koff was 0.00187 s⁻¹ and the kon was 205000 M⁻¹ s⁻¹. For the same binder, the t1/2 was 6.2 min.
B5 gave a Kd of 216 nM, a koff of 0.0175 s⁻¹ and a kon of 81000 M⁻¹ s⁻¹. For the same binder, the t1/2 was 0.7 min.
For B6, the Kd was 27.3 nM, the koff was 0.00327 s⁻¹ and the kon was 120000 M⁻¹ s⁻¹. The t1/2 was 3.5 min.
Work on B7 yielded a Kd of 1.1 nM, a koff of 0.000292 s⁻¹ and a kon of 259000 M⁻¹ s⁻¹. It also gave a t1/2 of 40 min.
With B8 the Kd was 65.1 nM, the koff was 0.0112 s⁻¹ and the kon was 172000 M⁻¹ s⁻¹. It also gave a t1/2 of 1 min.
In the case of B9, the Kd is reported as 1 nM, the koff is reported as 0.000197 s⁻¹ and the kon is reported as 189000 M⁻¹ s⁻¹. The t1/2 was 59 min.

Reference: US20230059489A1
